B1: FAM189A2 (parent)
chain: PRCDLVDLGEGKICFCCEEFQPAK

Variants of: B1
Assay: protein stability index of a GFP-peptide fusion (GPS, HEK-293T) (PSI 1-6); higher = more stable
Settings: c terminus: a fixed tail appended
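Also: lentivirally expressed fusions sorted by FACS into six bins by GFP to DsRed ratio, PSI derived from sequencing read proportions per bin multiplied by bin number.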

Protein stability index: each site, then its substitutions
E19: G 2.71, I 1.55, W 2.25, N 3.21, R 2.21, K 2.09, T 3.13, Q 3.05, C 3.96, F 1.78, P 3.04, L 2, V 1.65, S 2.26, H 2.94, A 2.51, D 2.97, Y 2.03
F15: D 4.74, Q 4.13, V 3.43, K 4.07, Y 2.81, L 3.39, A 3.94, T 4.07, G 3.79, P 3.55, N 4.66, H 3.77, R 3.33, M 2.8, W 3.04, C 3.86, I 2.38, S 4.47, E 4.19
G11: V 1.05, T 2.64, Y 2.52, R 2.55, Q 2.98, P 2.52, L 1.95, N 3.33, W 2.69, M 2.21, K 2.4, S 2.8
I13: E 3.73, G 3.55, N 3.78, R 3.44, C 3.38, T 3.1, L 2.72, V 2.86, M 4.02, H 3.89, D 4.28, A 3.01, Q 3.27, P 3.41, F 3.02, Y 2.3, S 3.57, W 2.11, K 3.71
C16: S 3.28, Y 2.22, I 2.09, D 3.88, L 2.71, T 3.05, K 3.76, W 2.1, H 4.23, N 3.93, G 3.44, V 2.85, P 4.24, M 3.07, A 3.45, R 3.13, F 2.66, E 3.64, Q 3.89
E18: T 2.45, S 2.55, A 3.34, P 2.98, F 2.29, I 2.63, D 2.56, C 2.62, Q 2.64, W 2.01, G 2.64, M 2.07, R 2.28, N 2.78, Y 2.07, H 2.85, K 2.77, V 2.53, L 1.71
K12: V 2.35, R 1.99, I 2.46, F 2.85, T 2.63, M 2.04, W 2.32, S 3.38, A 3.51, G 2.21, L 2.42, N 2.7, H 4.16, Q 3.89, C 3.45, Y 2.42, P 3.25, E 3.6, D 3.4
C14: N 4.56, I 2.39, S 3.3, D 4.07, W 2.51, F 2.16, G 3.56, L 3.15, M 2.87, E 4.24, P 3.94, K 3.94, Q 3.79, T 3.47, Y 2.46, R 3.51, H 3.48, A 3.62, V 3.06
C17: E 4.67, P 3.27, K 3.64, H 3.11, G 3.92, D 4.29, I 2.05, A 3.34, N 3.96, Y 2.66, T 4.05, Q 3.12, S 3.5, F 2.37, W 2.51, R 3.28, M 2.66, L 2.15
F20: E 4.91, A 3.32, C 3.15, D 4.05, G 3.59

— the supplement of paper PMC10567573
